{"source": "patent US6808930B1", "about": "“Therapeutic agents” (priority 1997, dated 2004)", "molecules": {"B1": {"name": "MAL: protein complex from human milk casein containing oligomeric forms of α-lactalbumin; the apoptosis-inducing fraction (protein, UniProt P00709 20-142, looked up)", "Alpha-lactalbumin": "KQFTKCELSQLLKDIDGYGGIALPELICTMFHTSGYDTQAIVENNESTEYGLFQISNKLWCKSSQVPQSRNICDISCDKFLDDDITDDIMCAKKILDIKGIDYWLAHKALCTEKLEQWLCEKL", "modifications": "oligomeric form from milk casein", "notes": "protein complex from human milk casein containing oligomeric forms of α-lactalbumin; the apoptosis-inducing fraction"}}, "key": {"[1]": {"tested_on": "A549 cells", "assay": "Nuclear uptake of biotinylated protein, confocal microscopy", "assay_type": "cell-based, human", "experimental": "(§1) To detect intracellular protein, the cells were fixed at various times after addition of 0.3 mg/ml of biotinylated MAL for 5 min in phosphate-buffered paraformaldehyde (4%) (B. Sander et al., Immunol. Rev. (1991) 119: 65-92) at room temperature, washed in PBS, and permeabilized with 0.1% saponin in PBS. FITC conjugated streptavidin (diluted 1:100 in 0.1% saponin) was added and the cells were incubated for 30 min at room temperature. The cells were washed twice in PBS-saponin and once in PBS, mounted on a glass slide and analysed in a Bio-Rad 1024 laser scanning confocal equipment (Bio Rad Laboratories, Hemel-Hempstead, UK) attached to a Nikon Diaphot inverted microscope."}, "[2]": {"tested_on": "A549 cells", "assay": "Cell surface binding of biotinylated protein, flow cytometry", "design": "species or system human", "details": "biotinylated MAL, 30 min; second of three cell types (A549 by order)", "experimental": "(§2) MAL, human α-lactalbumin (HLA) and immunoglobulin G were biotinylated according to the manufacturer's instructions or labelled with ^125I with the lactoperoxidase method. Proteins were dissolved in PBSA-T buffer (30 mM Na2HPO4, 120 mM NaCl, pH 7.4, with 0.1% NaAzid, 0.05% Tween-20) and 25 μl of protein (25 μg) was incubated with 2 μl of ^125([…]), 2 μl of lactoperoxidase (2.5 mg/ml) and 2 μl of H2O2 (diluted 1:2000 in PBS) for 2 min at room temperature. The reaction was stopped by the addition of 500 μl of PBSA-T. The labelled protein was purified on a PD-10 column. 500 μl fractions in PBSA-T were eluted and fractions containing radioactivity were stored at […]. […] L1210, A549 and HRTEC cells (3×10^6 cells/ml, 50 μl) were incubated in suspension with 50 μl of biotinylated MAL, ALA or BSA for various times at 37° C. The cells were washed with PBS by centrifugation at 320×g for 10 min and the supernatant was discarded. FITC-conjugated streptavidin (diluted 1:50 in PBS) was added and the cells were incubated for 30 min at room temperature. The cells were washed by centrifugation as above, suspended in 300 μl PBS and the surface fluorescence was analysed by flow cytometry on a Coulter Epics Profile II flow cytometer (Coulter Inc.), equipped with a 488 nm argon laser. Green fluorescence was detected with a 525 nm band pass filter. […]"}, "[3]": {"tested_on": "HRTEC cells", "assay": "Cell surface binding of biotinylated protein, flow cytometry", "design": "species or system human", "details": "biotinylated MAL, 30 min; third of three cell types (HRTEC by order)", "experimental": "as §2"}, "[4]": {"tested_on": "L1210 cells", "assay": "Subcellular fractionation of cells exposed to 125I-labelled protein", "assay_type": "cell-based, murine", "experimental": "The intracellular distribution of MAL was further analysed in cells exposed to ^125I-labelled MAL with ^[…] α-lactalbumin and IgG as controls (FIG. 4). Subcellular fractions were prepared after mechanic disruption of the cells and the amount of radiolabelled MAL in each fraction was determined in relation to the total cell-associated radioactivity measured prior to disruption of the cells. Fraction P1 contained mostly cell nuclei, P2 contained plasma-Golgi-, ER-membranes and mitochondria, P3 contained small vesicles and the supernatant. Fraction S contained the cytosolic proteins. The purity of the fractions was determined by quantitation of specific markers (DNA, alkaline phosphatase, RNA and catalase).\nSpecifically, cellular subfractionation was performed as described (J. Graham., Isolation of subcellular organelles and membranes., p161-1019. In D. Rickwood ed., Centrifugation, a practical approach, 2nd ed. IRL Press, Washington D.C.). L1210, A549 or HRTEC cells in suspension (3×10^6 cells/ml, 100 μla were incubated with 1×10^6 cpr of ^125I-labelled MAL, ALA or IgG for various times at 37° C. The cells were washed three times with ice-cold PBS and the supernatants were discarded. The cells were suspended in 500 μl of homogenisation buffer (10 mM Tris-HCl, pH 7.8, 5 mM MgCl2 and 2 mM CaCl2 for L1210 cells and 0.15M NaCl, 2 mM EDTA, pH 7.5 for A549 cells), and homogenised by 50 strokes in a Dounce homogenizer (Thomas, Philadelphia, USA) with pestle size 415. Sucrose was added to a final concentration of […] and the homogenate was centrifuged at 100×g for 25 min at RT. The first pellet contained nuclei, large mitochondria and large sheets of plasma membrane. The remaining supernatant was further centrifuged at 12 000×g for 30 min at 4° C. resulting in a second pellet containing mitochondria endoplasmic reticulum, plasma membrane and cytoplasmic organelles. The supernatant was finally centrifuged at 150,000×g for 2 h at 4° C. resulting in a pellet containing small vesicles, endoplasmic reticulum and a supernatant containing cytosolic proteins."}, "[5]": {"tested_on": "A549 cells", "assay": "DNA fragmentation by gel electrophoresis and FIGE", "assay_type": "cell-based, human", "experimental": "(§3) Remaining cells were analysed for DNA fragmentation."}, "[6]": {"tested_on": "HRTEC cells", "assay": "DNA fragmentation by gel electrophoresis and FIGE", "assay_type": "cell-based, human", "details": "4 mg/ml for 24 h", "experimental": "as §3"}, "[7]": {"tested_on": "L1210 cells", "assay": "Cell surface binding of biotinylated protein, flow cytometry", "design": "species or system murine", "details": "biotinylated MAL", "experimental": "MAL, human α-lactalbumin (HLA) and immunoglobulin G were biotinylated according to the manufacturer's instructions or labelled with ^125I with the lactoperoxidase method. Proteins were dissolved in PBSA-T buffer (30 mM Na2HPO4, 120 mM NaCl, pH 7.4, with 0.1% NaAzid, 0.05% Tween-20) and 25 μl of protein (25 μg) was incubated with 2 μl of ^125([…]), 2 μl of lactoperoxidase (2.5 mg/ml) and 2 μl of H2O2 (diluted 1:2000 in PBS) for 2 min at room temperature. The reaction was stopped by the addition of 500 μl of PBSA-T. The labelled protein was purified on a PD-10 column. 500 μl fractions in PBSA-T were eluted and fractions containing radioactivity were stored at […]. […] L1210, A549 and HRTEC cells (3×10^6 cells/ml, 50 μl) were incubated in suspension with 50 μl of biotinylated MAL, ALA or BSA for various times at 37° C. The cells were washed with PBS by centrifugation at 320×g for 10 min and the supernatant was discarded. FITC-conjugated streptavidin (diluted 1:50 in PBS) was added and the cells were incubated for 30 min at room temperature. The cells were washed by centrifugation as above, suspended in 300 μl PBS and the surface fluorescence was analysed by flow cytometry on a Coulter Epics Profile II flow cytometer (Coulter Inc.), equipped with a 488 nm argon laser. Green fluorescence was detected with a 525 nm band pass filter. The PMT voltage was initially set to 1250 V and adjusted for day to day variation using calibration with Immunobeads (Coulter)."}, "[8]": {"tested_on": "L1210 cells", "assay": "Cell surface binding of 125I-labelled protein, cell associated radioactivity", "design": "species or system murine", "details": "30 min exposure to 2×10^6 cpm of 125I-labelled protein", "experimental": "Cell surface binding of MAL was also quantitated as the cell associated radioactivity during the first 30 min after addition of ^125I-labelled MAL to the cells (FIG. 2B). […]"}, "[9]": {"tested_on": "HRTEC cells", "assay": "Nuclear uptake of biotinylated protein, confocal microscopy", "assay_type": "cell-based, human", "details": "biotinylated MAL (1 mg/ml elsewhere in the source)", "experimental": "as §1, with “To detect intracellular protein, the cells were fixed at various times after addition of 0.3 mg/ml of biotinylated MAL for 5 min in phosphate-buffered paraformaldehyde (4%) (B.” left out"}, "[10]": {"details": "stated for the three cell types"}}}
{"molecule": "B1", "values": [{"measurement": "incubation time after which cytoplasmic, granular fluorescence was detected", "setting": "[1]; FIG. 3", "value": 3, "unit": "h"}, {"measurement": "incubation time at which nuclear accumulation was maximal", "setting": "[1]; FIG. 3", "value": 24, "unit": "h"}, {"measurement": "cytoplasmic staining", "setting": "[1]; biotinylated MAL", "value": "granular fluorescence evenly distributed throughout the cell"}, {"measurement": "cell nuclei stained brightly", "setting": "[1]; biotinylated MAL, longer incubation times (time not given)", "value": "About 15%"}, {"measurement": "fluorescence intensity of cell surface binding", "setting": "[2]", "value": "13.4 times that of the streptavidin control"}, {"measurement": "fluorescence intensity of cell surface binding", "setting": "[3]", "value": "8.5 times that of the streptavidin control"}, {"measurement": "share of total cell associated radioactivity in nuclear fraction (P1)", "setting": "[4]; 6 h, 125I-labelled", "value": "about 78%"}, {"measurement": "total cell associated radioactivity", "setting": "[4]; 6 h, 125I-labelled, denominator in brackets", "value": 44000}, {"measurement": "radioactivity in nuclear fraction (P1)", "setting": "[4]; 6 h, 125I-labelled, numerator in brackets", "value": 34200}, {"measurement": "radioactivity in cytosolic fraction", "setting": "[4]; final time-point", "value": 4500, "unit": "cpm"}, {"measurement": "radioactivity in pellet 2", "setting": "[4]; final time-point", "value": 4500, "unit": "cpm"}, {"measurement": "radioactivity in pellet 3", "setting": "[4]; final time-point", "value": 800, "unit": "cpm"}, {"measurement": "share of radioactivity in cytosolic fraction", "setting": "[4]; final time-point", "value": 10, "unit": "%"}, {"measurement": "share of radioactivity in pellet 2", "setting": "[4]; final time-point", "value": 10, "unit": "%"}, {"measurement": "share of radioactivity in pellet 3", "setting": "[4]; final time-point", "value": 2, "unit": "%"}, {"measurement": "concentration at which HMW fragmentation was maximal", "setting": "[5]", "value": 1500, "unit": "µg/mL"}, {"measurement": "concentration at which no chromosomal DNA was seen", "setting": "[5]", "value": 2.5, "unit": "mg/mL"}, {"measurement": "oligonucleosomal DNA fragmentation", "setting": "[5]", "value": "No oligonculeosomal fragmentation was detected"}, {"measurement": "time at which HMW fragmentation was first detected", "setting": "[5]; 1.0 mg/ml", "value": 6, "unit": "h"}, {"measurement": "HMW DNA fragmentation", "setting": "[6]", "value": "did not undergo HMW DNA fragmentation"}, {"measurement": "fluorescence intensity of cell surface binding", "setting": "[7]; 30 min, first of three cell types (L1210 by order)", "value": "12.1 times that of the streptavidin control"}, {"measurement": "time after which cell surface binding reached a maximum", "setting": "[7]; [10]", "value": 30, "unit": "min"}, {"measurement": "time after which cell surface binding was detected", "setting": "[7]; [10]", "value": 10, "unit": "min"}, {"measurement": "cell surface binding, cell associated radioactivity", "setting": "[8]", "value": "23 000 cpm"}, {"measurement": "nuclear uptake", "setting": "[9]", "value": "Nuclear uptake was not observed"}]}
